The source of these data is patent publication US20150232557A1 (APTEVO RESEARCH AND DEVELOPMENT, published 2015).

Assay [1] deals with T1, CD3 (human, UniProt P07766 23-207). As to the kind of experiment: cell-based or functional assay.
Assay [2] has as its target T1, CD3. As to the kind of experiment: flow cytometry on Jurkat (CD3+) cells, goat anti-human IgG-FITC detection. As to the method: Jurkat (CD3⁺) T cell leukemia cells were obtained from ATCC (Manassas, Va.), and cultured according to the protocol provided by ATCC. Binding was assessed by incubating 5×10⁵ Jurkat cells for 30 minutes at 4° C. with serially diluted bispecific molecules TSC228 or TSC249, in concentrations from 250 nM to 0.125 nM (TSC249) or 125 nM to 1 pM (TSC228). The cells were washed three times and then incubated with goat anti-human IgG-FITC (1:200 dilution) for another 30 minutes at 4° C. The cells were then washed again three times, fixed in 1% paraformaldehyde and read on a FACS-Calibur instrument.
A general note: In flow cytometry, cells or beads pass a laser one at a time.

T1 sequence (P07766 23-207): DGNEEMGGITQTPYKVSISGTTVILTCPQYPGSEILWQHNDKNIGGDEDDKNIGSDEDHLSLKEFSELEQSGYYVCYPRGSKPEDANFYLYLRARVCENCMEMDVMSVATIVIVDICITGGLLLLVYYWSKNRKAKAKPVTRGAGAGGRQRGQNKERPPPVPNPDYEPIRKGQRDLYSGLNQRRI

B1: TSC194 (huVL-VH#2 107-1A4 scFv-Fc-Cris7 scFv) (bispecific antibody)
chain: DIQMTQSPSAMSASVGDRVTITCRASKSISKYLAWFQQKPGKVPKLRIHSGSTLQSGVPSRFSGSGSGTEFTLTISSLQPEDFATYYCQQHIEYPWTFGQGTKVEIKRGGGGSGGGGSGGGGSQVQLVQSGAEVKKPGASVKVSCKASGYTFTDYYMHWVRQAPGQGLEWMGYFNPYNDYTRYAQKFQGRVTMTRDTSISTAYMELSSLRSDDTAVYYCARSDGYYDAMDYWGQGTTVTVSSSEPKSSDKTHTCPPCPAPEAAGAPSVFLFPPKPKDTLMISRTPEVTCVVVDVSHEDPEVKFNWYVDGVEVHNAKTKPREEQYNSTYRVVSVLTVLHQDWLNGKAYACAVSNKALPAPIEKTISKAKGQPREPQVYTLPPSRDELTKNQVSLTCLVKGFYPSDIAVEWESNGQPENNYKTTPPVLDSDGSFFLYSKLTVDKSRWQQGNVFSCSVMHEALHNHYTQKSLSLSPGQRHNNSSLNTGTQMAGHSPNSQVQLVQSGGGVVQPGRSLRLSCKASGYTFTRSTMHWVRQAPGKGLEWIGYINPSSAYTNYNQKFKDRFTISADKSKSTAFLQMDSLRPEDTGVYFCARPQVHYDYNGFPYWGQGTPVTVSSGGGGSGGGGSGGGGSAQDIQMTQSPSSLSASVGDRVTMTCSASSSVSYMNWYQQKPGKAPKRWIYDSSKLASGVPARFSGSGSGTDYTLTISSLQPEDFATYYCQQWSRNPPTFGGGTKLQITR
Consider B1, for which the “EC50 for RTCC” value with CD3 [1] is 0.0028 nM.

B2: TSC228 (HD37 x DRA222 scFv heterodimer) (bispecific antibody)
chain 1: DIVLTQSPASLAVSLGQRATISCKASQSVDYDGDSYLNWYQQIPGQPPKLLIYDASNLVSGIPPRFSGSGSGTDFTLNIHPVEKVDAATYHCQQSTEDPWTFGGGTKLEIKGGGGSGGGGSGGGGASQVQLQQSGAELVRPGSSVKISCKASGYAFSSYWMNWVKQRPGQGLEWIGQIWPGDGDTNYNGKFKGKATLTADESSSTAYMQLSSLASEDSAVYFCARRETTTVGRYYYAMDYWGQGTSVTVSSSEPKSSDKTHTCPPCPAPEAAGAPSVFLFPPKPKDTLMISRTPEVTCVVVDVSHEDPEVKFNWYVDGVEVHNAKTKPREEQYNSTYRVVSVLTVLHQDWLNGKAYACAVSNKALPAPIEKTISKAKGQPREPQVYTLPPSRDELTKNQVSLTCLVKGFYPSDIAVEWESNGQPENNYKTTPPVLDSDGSFFLYSKLTVDKSRWQQGNVFSCSVMHEALHNHYTQKSLSLSPGKSRASTKGPSVFPLAPSSKSTSGGTAALGCLVKDYFPEPVTVSWNSGALTSGVHTFPAVLQSSGLYSLSSVVTVPSSSLGTQTYICNVNHKPSNTKVDKKV
chain 2: QVQLVESGGGVVQPGRSLRLSCKASGYTFTRSTMHWVRQAPGQGLEWIGYINPSSAYTNYNQKFKDRFTISADKSKSTAFLQMDSLRPEDTGVYFCARPQVHYDYNGFPYWGQGTPVTVSSGGGGSGGGGSGGGGSAQDIQMTQSPSSLSASVGDRVTMTCSASSSVSYMNWYQQKPGKAPKRWIYDSSKLASGVPARFSGSGSGTDYTLTISSLQPEDFATYYCQQWSRNPPTFGGGTKLQITSSSEPKSSDKTHTCPPCPAPEAAGAPSVFLFPPKPKDTLMISRTPEVTCVVVDVSHEDPEVKFNWYVDGVEVHNAKTKPREEQYNSTYRVVSVLTVLHQDWLNGKAYACAVSNKALPAPIEKTISKAKGQPREPQVYTLPPSRDELTKNQVSLTCLVKGFYPSDIAVEWESNGQPENNYKTTPPVLDSDGSFFLYSKLTVDKSRWQQGNVFSCSVMHEALHNHYTQKSLSLSPGKSRTVAAPSVFIFPPSDEQLKSGTASVVCLLNYFYPREAKVQWKVDNALQSGNSQESATEQDSKDSTYSLSSELTLSKADYEKHKVYACEVTHQGLSSPVTKSFNRGE
notes: TSC049 is HD37 scFv-hinge-CH2-CH3-CH1; TSC222 is DRA222 scFv-hinge-CH2-CH3-CK(YAE); also called anti-CD19 x anti-CD3 bispecific polypeptide heterodimer; TSC049 + TSC222
Usually EC50 stands for the midpoint of the concentration-response curve. Low values mean greater potency, high ones weaker potency. Molecule B2 came in with an EC50 with CD3 [2] of 24.5 nM.

B3: humanized TSC249 Scorpion (huVL-VH#2 107-1A4 scFv-Fc-DRA222 scFv) (bispecific antibody)
chain: DIQMTQSPSAMSASVGDRVTITCRASKSISKYLAWFQQKPGKVPKLRIHSGSTLQSGVPSRFSGSGSGTEFTLTISSLQPEDFATYYCQQHIEYPWTFGQGTKVEIKRGGGGSGGGGSGGGGSQVQLVQSGAEVKKPGASVKVSCKASGYTFTDYYMHWVRQAPGQGLEWMGYFNPYNDYTRYAQKFQGRVTMTRDTSISTAYMELSSLRSDDTAVYYCARSDGYYDAMDYWGQGTTVTVSSSEPKSSDKTHTCPPCPAPEAAGAPSVFLFPPKPKDTLMISRTPEVTCVVVDVSHEDPEVKFNWYVDGVEVHNAKTKPREEQYNSTYRVVSVLTVLHQDWLNGKAYACAVSNKALPAPIEKTISKAKGQPREPQVYTLPPSRDELTKNQVSLTCLVKGFYPSDIAVEWESNGQPENNYKTTPPVLDSDGSFFLYSKLTVDKSRWQQGNVFSCSVMHEALHNHYTQKSLSLSPGQRHNNSSLNTGTQMAGHSPNSQVQLVESGGGVVQPGRSLRLSCKASGYTFTRSTMHWVRQAPGQGLEWIGYINPSSAYTNYNQKFKDRFTISADKSKSTAFLQMDSLRPEDTGVYFCARPQVHYDYNGFPYWGQGTPVTVSSGGGGSGGGGSGGGGSAQDIQMTQSPSSLSASVGDRVTMTCSASSSVSYMNWYQQKPGKAPKRWIYDSSKLASGVPARFSGSGSGTDYTLTISSLQPEDFATYYCQQWSRNPPTFGGGTKLQITSSS
notes: also called anti-PSMA x anti-CD3 bispecific polypeptide homodimer
Consider B3, for which the “EC50 for RTCC” value in the assay with CD3 [1] is 0.0029 nM. The molecule further yielded an EC50 in the assay with CD3 [2] of 1.9 nM.
